Reference: patent publication US20130129731A1 (SAMSUNG ELECTRONICS, published 2013)
Read-outs that look alike come from different tables or passages of the source.

Legend:
BSA (Takara) = target: T1, BSA (Takara) (Bos taurus, UniProt P02769); test: ELISA, antigen coated on the plate, detection with goat anti-human IgG-HRP, absorbance at 450 nm
T1 construct: commercial protein

[1] = target: T2, human c-Met antigen (Biacore analyte) (human, UniProt P08581 25-932, limits assumed); test: SPR (Biacore), antibody immobilised on a CM5 chip, c-Met antigen injected
T2 sequence (P08581 25-932 limits assumed): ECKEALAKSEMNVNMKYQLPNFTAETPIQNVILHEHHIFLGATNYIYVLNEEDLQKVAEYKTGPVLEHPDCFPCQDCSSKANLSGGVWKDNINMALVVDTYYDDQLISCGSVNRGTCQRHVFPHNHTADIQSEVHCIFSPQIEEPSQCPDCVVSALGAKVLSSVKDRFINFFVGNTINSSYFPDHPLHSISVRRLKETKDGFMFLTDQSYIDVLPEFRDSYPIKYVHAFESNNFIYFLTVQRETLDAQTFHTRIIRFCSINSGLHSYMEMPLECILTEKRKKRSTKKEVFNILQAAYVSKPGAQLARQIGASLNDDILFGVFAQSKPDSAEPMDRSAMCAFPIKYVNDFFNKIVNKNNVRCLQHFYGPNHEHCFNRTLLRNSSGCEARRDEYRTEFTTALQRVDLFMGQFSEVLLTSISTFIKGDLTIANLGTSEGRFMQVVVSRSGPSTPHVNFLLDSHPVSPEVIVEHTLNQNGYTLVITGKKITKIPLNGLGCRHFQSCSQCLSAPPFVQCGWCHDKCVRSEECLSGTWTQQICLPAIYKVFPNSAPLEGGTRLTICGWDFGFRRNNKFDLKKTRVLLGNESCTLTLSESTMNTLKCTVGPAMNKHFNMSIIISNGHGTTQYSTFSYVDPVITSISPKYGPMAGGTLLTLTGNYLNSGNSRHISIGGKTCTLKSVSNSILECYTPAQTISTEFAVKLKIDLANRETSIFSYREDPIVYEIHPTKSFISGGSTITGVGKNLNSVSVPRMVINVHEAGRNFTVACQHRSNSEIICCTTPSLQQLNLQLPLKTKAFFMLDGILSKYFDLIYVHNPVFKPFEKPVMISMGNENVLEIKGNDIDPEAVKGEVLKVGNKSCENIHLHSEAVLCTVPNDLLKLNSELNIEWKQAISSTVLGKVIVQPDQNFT
Procedure: (§1) Binding affinity of the IGTML4-4 antibody constructed in Example 1 to c-Met antigens was analyzed using a Biacore (available from GE Healthcare).

[2] = target: T3, mouse c-Met antigen (Biacore analyte) (mouse, UniProt P16056 25-931, limits assumed); test: as above
T3 sequence (P16056 25-931 limits assumed): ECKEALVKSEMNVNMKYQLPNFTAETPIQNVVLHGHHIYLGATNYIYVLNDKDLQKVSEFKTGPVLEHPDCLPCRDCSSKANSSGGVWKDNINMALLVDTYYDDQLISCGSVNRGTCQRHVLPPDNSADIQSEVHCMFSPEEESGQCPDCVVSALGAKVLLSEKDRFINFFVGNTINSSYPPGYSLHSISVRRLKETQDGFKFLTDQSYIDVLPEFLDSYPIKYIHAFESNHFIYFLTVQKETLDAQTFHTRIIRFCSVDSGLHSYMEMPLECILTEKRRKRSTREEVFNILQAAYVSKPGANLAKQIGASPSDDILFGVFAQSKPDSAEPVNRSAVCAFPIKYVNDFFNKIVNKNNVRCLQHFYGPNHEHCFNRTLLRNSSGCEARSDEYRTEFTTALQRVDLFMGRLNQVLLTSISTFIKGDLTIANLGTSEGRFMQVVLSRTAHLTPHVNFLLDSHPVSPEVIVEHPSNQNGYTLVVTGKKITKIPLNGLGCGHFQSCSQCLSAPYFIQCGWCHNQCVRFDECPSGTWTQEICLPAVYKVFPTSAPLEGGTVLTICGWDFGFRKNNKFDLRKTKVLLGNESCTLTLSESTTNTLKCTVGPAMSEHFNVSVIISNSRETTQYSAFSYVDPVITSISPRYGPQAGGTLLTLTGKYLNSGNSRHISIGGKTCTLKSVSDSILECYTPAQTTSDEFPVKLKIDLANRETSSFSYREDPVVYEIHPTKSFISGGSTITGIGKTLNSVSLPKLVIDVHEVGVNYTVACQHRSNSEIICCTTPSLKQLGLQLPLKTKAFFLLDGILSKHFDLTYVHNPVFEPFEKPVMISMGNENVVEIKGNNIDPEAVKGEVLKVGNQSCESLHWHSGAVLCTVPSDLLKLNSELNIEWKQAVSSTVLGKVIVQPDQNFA
Procedure: as §1

[3] = target: c-Met on human cells (Caki-1 cells, HUVECs, human primary hepatocytes) (human, UniProt P08581 25-1390); test: cell-based or functional assay
c-Met on human cells (Caki-1 cells, HUVECs, human primary hepatocytes), sequence (P08581 25-1390): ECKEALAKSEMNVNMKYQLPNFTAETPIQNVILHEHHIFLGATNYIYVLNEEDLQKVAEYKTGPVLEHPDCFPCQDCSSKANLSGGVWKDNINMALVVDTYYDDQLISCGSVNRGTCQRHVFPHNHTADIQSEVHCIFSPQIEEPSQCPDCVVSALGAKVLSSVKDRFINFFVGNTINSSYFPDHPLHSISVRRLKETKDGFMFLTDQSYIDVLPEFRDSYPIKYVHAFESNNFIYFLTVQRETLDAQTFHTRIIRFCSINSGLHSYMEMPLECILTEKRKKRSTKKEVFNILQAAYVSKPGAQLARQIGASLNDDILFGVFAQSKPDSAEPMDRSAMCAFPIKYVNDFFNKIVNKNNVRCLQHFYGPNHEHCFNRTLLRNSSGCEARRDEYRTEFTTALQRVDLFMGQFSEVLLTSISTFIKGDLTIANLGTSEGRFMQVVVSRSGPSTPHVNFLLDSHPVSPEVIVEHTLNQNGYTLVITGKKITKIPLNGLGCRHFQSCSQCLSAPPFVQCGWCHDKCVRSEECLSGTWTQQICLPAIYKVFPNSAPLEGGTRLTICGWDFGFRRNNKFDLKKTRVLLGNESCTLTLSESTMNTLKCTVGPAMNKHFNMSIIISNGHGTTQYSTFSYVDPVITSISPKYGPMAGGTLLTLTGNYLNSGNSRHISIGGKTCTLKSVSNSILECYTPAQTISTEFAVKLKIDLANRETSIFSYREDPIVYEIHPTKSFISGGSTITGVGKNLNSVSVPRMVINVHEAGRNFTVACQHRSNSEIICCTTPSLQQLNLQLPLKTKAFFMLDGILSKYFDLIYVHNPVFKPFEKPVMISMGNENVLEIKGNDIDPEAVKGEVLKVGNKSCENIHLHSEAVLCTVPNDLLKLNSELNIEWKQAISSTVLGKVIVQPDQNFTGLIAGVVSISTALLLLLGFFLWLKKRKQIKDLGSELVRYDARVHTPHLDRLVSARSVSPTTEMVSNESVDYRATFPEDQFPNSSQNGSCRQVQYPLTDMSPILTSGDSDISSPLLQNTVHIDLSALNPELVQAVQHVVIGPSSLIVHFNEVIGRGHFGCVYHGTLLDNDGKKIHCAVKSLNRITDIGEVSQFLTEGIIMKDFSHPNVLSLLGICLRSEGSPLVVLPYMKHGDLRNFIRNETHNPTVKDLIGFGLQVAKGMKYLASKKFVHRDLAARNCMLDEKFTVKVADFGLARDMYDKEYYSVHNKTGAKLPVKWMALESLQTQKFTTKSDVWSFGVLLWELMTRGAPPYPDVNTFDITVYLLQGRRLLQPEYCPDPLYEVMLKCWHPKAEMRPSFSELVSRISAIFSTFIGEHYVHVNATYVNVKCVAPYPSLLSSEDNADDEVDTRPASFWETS

[4] = target: T2, human c-Met antigen (Biacore analyte); test: SPR (Biacore), antibody immobilised on a CM5 chip, c-Met antigen injected; remark: listed apart in the source
Procedure: as §1

[5] = target: T3, mouse c-Met antigen (Biacore analyte); test: as above; remark: listed apart in the source
Procedure: as §1

T1 sequence (P02769 25-607 limits assumed): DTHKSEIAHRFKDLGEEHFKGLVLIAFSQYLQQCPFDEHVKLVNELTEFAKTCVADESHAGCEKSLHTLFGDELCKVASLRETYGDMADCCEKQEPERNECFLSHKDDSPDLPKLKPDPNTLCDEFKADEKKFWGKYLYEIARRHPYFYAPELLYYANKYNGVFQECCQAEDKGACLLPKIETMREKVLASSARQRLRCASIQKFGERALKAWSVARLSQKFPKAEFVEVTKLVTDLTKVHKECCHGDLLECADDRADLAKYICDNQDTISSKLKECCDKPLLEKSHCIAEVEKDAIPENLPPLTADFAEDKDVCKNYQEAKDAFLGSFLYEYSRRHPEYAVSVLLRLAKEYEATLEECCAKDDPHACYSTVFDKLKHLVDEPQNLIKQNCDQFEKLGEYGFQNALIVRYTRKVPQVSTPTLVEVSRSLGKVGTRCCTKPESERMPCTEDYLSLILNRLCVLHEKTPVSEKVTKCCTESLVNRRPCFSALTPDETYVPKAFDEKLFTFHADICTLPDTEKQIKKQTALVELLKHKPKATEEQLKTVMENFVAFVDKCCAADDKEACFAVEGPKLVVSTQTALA

B1: IGTML4-4 antibody (antibody, V domains shown)
VH: QVQLLQSGGGLVQPGGSLRVSCAASGFRFSMYVMTWVRQAPGKGLEWVSEISASGASTYYADSVKGRFTMSRDNSKNTVFLQMNSLRVEDTAVYYCARAYRYGMDVWGQGTMVTVSS
VL: DIVMTQSPSSVSASVGDRVTLTCRASQNIGSWLAWYQQKPGNAPKLLIYRASNLRSGVPSRFSGSGSGTDFTLTISSLQPEDFATYFCQQATIFPLTFGGGTRVDIKR
notes: also called anti c-Met antibody
binding result (BSA (Takara)): no binding
Kd [1]: 0.398 nM
koff [1]: 0.000188 s⁻¹
kon [1]: 471000 M⁻¹ s⁻¹
Kd [2]: 0.304 nM
koff [2]: 0.000168 s⁻¹
kon [2]: 553000 M⁻¹ s⁻¹
degree of Akt phosphorylation relative to the 5D5 antibody (Caki-1 cells, 5 µg/ml antibody, phospho-AKT1 Ser473 sandwich ELISA) [3]: ~84%
Kd [4]: < 1 nM
Kd [5]: < 1 nM
